Measurements: publication PMC10071816 (bioRxiv, 2023)

Assays:
[1] = biological target: CCT5, subunit of human TRiC (human, UniProt P48643 1-541); assay: cryo-EM structure
[2] = biological target: human chaperonin TCP-1 ring complex (TRiC/CCT) (human) (UniProt P17987); assay: cryo-EM structure
[3] = biological target: T1, CCT2, subunit of human TRiC (human, UniProt P78371 1-535); assay: cross-linking
T1 sequence: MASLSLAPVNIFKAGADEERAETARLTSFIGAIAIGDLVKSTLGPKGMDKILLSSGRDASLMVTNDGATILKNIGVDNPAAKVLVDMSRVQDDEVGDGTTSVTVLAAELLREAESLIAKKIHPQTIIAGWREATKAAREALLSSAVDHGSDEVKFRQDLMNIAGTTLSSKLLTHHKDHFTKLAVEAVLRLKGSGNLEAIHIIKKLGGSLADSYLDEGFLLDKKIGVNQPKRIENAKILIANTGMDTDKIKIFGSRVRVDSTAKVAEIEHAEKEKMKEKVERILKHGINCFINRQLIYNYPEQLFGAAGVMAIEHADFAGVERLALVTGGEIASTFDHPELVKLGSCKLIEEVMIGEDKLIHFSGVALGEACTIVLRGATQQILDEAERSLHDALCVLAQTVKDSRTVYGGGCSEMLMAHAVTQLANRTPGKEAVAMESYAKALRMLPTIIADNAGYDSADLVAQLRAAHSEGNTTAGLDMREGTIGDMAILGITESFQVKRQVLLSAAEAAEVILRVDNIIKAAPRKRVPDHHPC

[4] = biological target: CCT1, subunit of human TRiC (human, UniProt P17987 1-556); assay: cross-linking
Sequence of CCT1, subunit of human TRiC (P17987 whole entry): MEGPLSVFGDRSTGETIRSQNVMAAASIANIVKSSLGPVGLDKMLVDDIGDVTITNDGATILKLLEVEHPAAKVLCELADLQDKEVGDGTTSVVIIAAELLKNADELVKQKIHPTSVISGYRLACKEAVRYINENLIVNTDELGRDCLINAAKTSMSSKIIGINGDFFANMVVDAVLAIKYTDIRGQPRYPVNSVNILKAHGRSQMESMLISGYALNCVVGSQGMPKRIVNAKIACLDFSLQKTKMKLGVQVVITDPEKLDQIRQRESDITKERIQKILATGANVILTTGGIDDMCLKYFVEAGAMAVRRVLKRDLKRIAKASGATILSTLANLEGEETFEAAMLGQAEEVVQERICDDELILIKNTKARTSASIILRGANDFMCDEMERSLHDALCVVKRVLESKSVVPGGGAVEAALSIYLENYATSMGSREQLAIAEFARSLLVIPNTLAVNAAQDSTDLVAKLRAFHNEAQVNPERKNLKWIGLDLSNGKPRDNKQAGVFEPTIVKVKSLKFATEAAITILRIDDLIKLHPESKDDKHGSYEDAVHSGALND

Sequence of CCT5, subunit of human TRiC (P48643 whole entry): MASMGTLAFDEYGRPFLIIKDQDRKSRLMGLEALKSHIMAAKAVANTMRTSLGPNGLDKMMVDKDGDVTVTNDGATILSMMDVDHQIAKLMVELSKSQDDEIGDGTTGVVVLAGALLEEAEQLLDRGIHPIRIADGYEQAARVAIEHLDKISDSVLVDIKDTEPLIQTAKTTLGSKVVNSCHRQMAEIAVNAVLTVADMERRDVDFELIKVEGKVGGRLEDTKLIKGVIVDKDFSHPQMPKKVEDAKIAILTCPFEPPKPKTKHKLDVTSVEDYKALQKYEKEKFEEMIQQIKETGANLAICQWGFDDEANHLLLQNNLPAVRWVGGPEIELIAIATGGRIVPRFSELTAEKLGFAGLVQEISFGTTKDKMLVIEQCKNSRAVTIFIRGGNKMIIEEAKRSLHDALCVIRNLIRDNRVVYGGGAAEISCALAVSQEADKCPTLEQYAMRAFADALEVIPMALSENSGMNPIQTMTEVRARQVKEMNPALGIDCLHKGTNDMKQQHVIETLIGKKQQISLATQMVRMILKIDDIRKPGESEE

B1: phosducin-like protein PhLP2A, full length (natural protein)
chain: MQDPNADTEWNDILRKKGILPPKESLKELEEEAEEEQRILQQSVVKTYEDMTLEELEDHEDEFNEEDERAIEMYRRRRLAEWKATKLKNKFGEVLEISGKDYVQEVTKAGEGLWVILHLYKQGIPLCALINQHLSGLARKFPDVKFIKAISTTCIPNYPDRNLPTIFVYLEGDIKAQFIGPLVFGGMNLTRDELEWKLSESGAIMTDLEENPKKPIEDVLLSSVRRSVLMKRDSDSEGD
B1 was tested, and the binding result [1] was “binds”, the percent of particles (3D classification) [2] was 22.9% and the percent of particles with PhLP2A in both chambers [2] was 9.5%. For the same binder, the percent of particles with PhLP2A in one chamber [2] was 14%, the binding result [3] was “binds” and the binding result [4] was “binds”.
